Test results: paper doi:10.1101/2021.08.05.455261
Like-named read-outs stand apart in the source and are kept apart here.

Key:
Experiment in all cases: SEC
[1] = target: C-terminal domain homolog (CTDH) from Anabaena variabilis (Anabaena variabilis)
[2] = target: C-terminal domain homolog (CTDH) from Anabaena variabilis (Anabaena variabilis); remark: listed apart in the source
[3] = target: C-terminal domain homolog (CTDH) from Anabaena variabilis (Anabaena variabilis); remark: listed apart in the source
[4] = target: C-terminal domain homolog (CTDH) from Anabaena variabilis (Anabaena variabilis); remark: listed apart in the source

Measured: stoichiometry N

C-terminal domain homolog (CTDH) from Anabaena variabilis (natural protein)
2: [1] | [2] | [3] | [4]
